Experimental data published in the supplement of paper PMC9732359.
± gives the uncertainty stated by the source.

Experiment: protein stability index of a GFP-peptide fusion (yeast GPS) (PSI 1-4); higher = more stable; sorted into four equal gates, so the index is relative within each strain
In short: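 For each peptide, the protein stability index sums the read frequency in every gate after multiplying it by the gate number. Read frequencies came from plasmids that were PCR-amplified from each gate and Illumina-sequenced, with reads assigned to strains by barcodes. The gates were four equal bins of GFP/Cherry fluorescence ratio applied to mid-log yeast in leucine-free medium carrying a pooled library of tiled 17-residue yeast protein peptides fused downstream of GFP on a Cherry-expressing plasmid.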

## QKRLEAGALNLASPEVK [DIS3]
pdr5∆
  protein stability index: 2.64 ± 0.18
ubr1∆
  protein stability index: 2.82 ± 0.081

## TRDDLLTILMRSIMKNR [RRI2]
doa10∆
  protein stability index: 2.36 ± 0.082
pdr5∆
  protein stability index: 2.61 ± 0.087
san1∆
  protein stability index: 2.22 ± 0.29
ubr1∆
  protein stability index: 2.75 ± 0.067

## NTRKNMSISLESSKALA [DIS3]
doa10∆
  protein stability index: 1.96 ± 0.082
pdr5∆
  protein stability index: 2.24 ± 0.1
san1∆
  protein stability index: 1.96 ± 0.13
ubr1∆
  protein stability index: 2.08 ± 0.078

## MSVPAIAPRRKRLADGL [DIS3]
doa10∆
  protein stability index: 3.37 ± 0.095
pdr5∆
  protein stability index: 3.18 ± 0.11
san1∆
  protein stability index: 3.26 ± 0.078
ubr1∆
  protein stability index: 3.11 ± 0.063

## LSPSGHKTFLVANVKDL [RPL32]
pdr5∆
  protein stability index: 3.33 ± 0.26
san1∆
  protein stability index: 2.84 ± 0.095
ubr1∆
  protein stability index: 2.84 ± 0.17

## FILELEHKTPELISFKE [YIL149C/MLP2]
doa10∆
  protein stability index: 2.86 ± 0.081
pdr5∆
  protein stability index: 3.05 ± 0.086
san1∆
  protein stability index: 2.96 ± 0.1
ubr1∆
  protein stability index: 3.29 ± 0.086

## SIFEDAIKELNYNRIAK [NUT1]
doa10∆
  protein stability index: 2.79 ± 0.13
pdr5∆
  protein stability index: 3.12 ± 0.19
san1∆
  protein stability index: 3.07 ± 0.075
ubr1∆
  protein stability index: 2.92 ± 0.12

## TITKRNGAFQNSSNLSY [RRP4]
doa10∆
  protein stability index: 3.04 ± 0.054
pdr5∆
  protein stability index: 3.02 ± 0.057
san1∆
  protein stability index: 3.1 ± 0.04
ubr1∆
  protein stability index: 3.11 ± 0.042

## QESLVKLFTTNELMRWP [RPN5]
doa10∆
  protein stability index: 2.96 ± 0.21
pdr5∆
  protein stability index: 3.72 ± 0.3
san1∆
  protein stability index: 3.15 ± 0.12
ubr1∆
  protein stability index: 2.91 ± 0.13

## FNRALDQSISKLQSWDK [NNF1]
doa10∆
  protein stability index: 1.63 ± 0.066
pdr5∆
  protein stability index: 1.49 ± 0.068
san1∆
  protein stability index: 1.51 ± 0.085
ubr1∆
  protein stability index: 1.78 ± 0.051

## SKDGLPNKVKTEDIRIR [RRP6]
doa10∆
  protein stability index: 2.67 ± 0.063
pdr5∆
  protein stability index: 2.91 ± 0.076
san1∆
  protein stability index: 2.76 ± 0.067
ubr1∆
  protein stability index: 2.73 ± 0.046

## DFDDSTAQEINFKMLVL [IRR1]
doa10∆
  protein stability index: 2.59 ± 0.064
pdr5∆
  protein stability index: 2.66 ± 0.053
san1∆
  protein stability index: 2.67 ± 0.058
ubr1∆
  protein stability index: 2.9 ± 0.054

## PSRIFYKALRGMVSHKT [RPL16A]
doa10∆
  protein stability index: 2.32 ± 0.1
pdr5∆
  protein stability index: 1.27 ± 0.075
san1∆
  protein stability index: 2.44 ± 0.14
ubr1∆
  protein stability index: 1.82 ± 0.13

## PSKKLKTEDGFVIPALP [RPC82]
doa10∆
  protein stability index: 3.08 ± 0.13
pdr5∆
  protein stability index: 3.19 ± 0.089
san1∆
  protein stability index: 2.93 ± 0.083
ubr1∆
  protein stability index: 3.08 ± 0.065

## ISLSFSRPASYGYFSVG [SIR4]
doa10∆
  protein stability index: 1.78 ± 0.073
pdr5∆
  protein stability index: 1.82 ± 0.06
san1∆
  protein stability index: 1.81 ± 0.11
ubr1∆
  protein stability index: 2.07 ± 0.052

## KSIIGKLTAERANLRKY [POP1]
doa10∆
  protein stability index: 2.72 ± 0.059
pdr5∆
  protein stability index: 2.92 ± 0.081
san1∆
  protein stability index: 2.8 ± 0.07
ubr1∆
  protein stability index: 2.6 ± 0.074

## NNGDKDHLKLVSLFSNL [YIL149C/MLP2]
doa10∆
  protein stability index: 2.42 ± 0.09
pdr5∆
  protein stability index: 2.67 ± 0.19
san1∆
  protein stability index: 2.5 ± 0.26
ubr1∆
  protein stability index: 2.44 ± 0.096

## DIWSISKKRQAEKLVPL [YML031W/NDC1]
doa10∆
  protein stability index: 2.64 ± 0.089
pdr5∆
  protein stability index: 2.78 ± 0.076
san1∆
  protein stability index: 2.35 ± 0.073
ubr1∆
  protein stability index: 2.55 ± 0.062

## SANGYLNATTAMDLAQM [BRR2]
doa10∆
  protein stability index: 3.23 ± 0.17
san1∆
  protein stability index: 3.15 ± 0.088

## GMMSTTGTARLNSMPNN [YJL039C/NUP192]
pdr5∆
  protein stability index: 2.99 ± 0.15
san1∆
  protein stability index: 3.1 ± 0.089
ubr1∆
  protein stability index: 3.22 ± 0.11

## KVTSYDITGDIRNEGSD [ISW2]
doa10∆
  protein stability index: 3.15 ± 0.17
pdr5∆
  protein stability index: 3.04 ± 0.21
san1∆
  protein stability index: 3.21 ± 0.14

## VVSTTAVIESVVNQPTG [FAS1]
doa10∆
  protein stability index: 2.06 ± 0.078
pdr5∆
  protein stability index: 1.82 ± 0.087
san1∆
  protein stability index: 1.99 ± 0.11
ubr1∆
  protein stability index: 2.1 ± 0.079

## SSTGVPESIDTILSSKL [SRB2]
doa10∆
  protein stability index: 2.62 ± 0.19
pdr5∆
  protein stability index: 2.92 ± 0.13
san1∆
  protein stability index: 2.93 ± 0.075
ubr1∆
  protein stability index: 3.04 ± 0.075

## MAAALPNPTPSMINSVS [PGD1]
doa10∆
  protein stability index: 1.77 ± 0.05
pdr5∆
  protein stability index: 2.3 ± 0.061
san1∆
  protein stability index: 2.05 ± 0.052
ubr1∆
  protein stability index: 2.1 ± 0.045

## GTLWAHVLKTVDYGGAE [SNU114]
doa10∆
  protein stability index: 1.44 ± 0.084
pdr5∆
  protein stability index: 1.32 ± 0.057
san1∆
  protein stability index: 1.65 ± 0.16
ubr1∆
  protein stability index: 1.36 ± 0.057

## QTIPIQIYGFEGLNQRN [YGR119C/NUP57]
doa10∆
  protein stability index: 2.64 ± 0.27
san1∆
  protein stability index: 2.52 ± 0.16
ubr1∆
  protein stability index: 3.08 ± 0.18

## ILNDIETLEHNPVALEQ [BRR2]
doa10∆
  protein stability index: 2.95 ± 0.08
pdr5∆
  protein stability index: 3.25 ± 0.1
san1∆
  protein stability index: 3.18 ± 0.079
ubr1∆
  protein stability index: 3.13 ± 0.077

## VPDSKIRIYDLGKKKAT [RPL10]
doa10∆
  protein stability index: 1.24 ± 0.076
pdr5∆
  protein stability index: 1.35 ± 0.071
san1∆
  protein stability index: 1.15 ± 0.13
ubr1∆
  protein stability index: 1.05 ± 0.056

## IKEKFDEFIKTHEDLPK [IRR1]
doa10∆
  protein stability index: 2.7 ± 0.1
pdr5∆
  protein stability index: 2.68 ± 0.095
san1∆
  protein stability index: 2.62 ± 0.065
ubr1∆
  protein stability index: 3.01 ± 0.071

## YATKRQEAIQQNRRLAF [PRP8]
doa10∆
  protein stability index: 2.43 ± 0.11
pdr5∆
  protein stability index: 2.43 ± 0.12
san1∆
  protein stability index: 2.62 ± 0.25
ubr1∆
  protein stability index: 2.61 ± 0.067

## VLYQSNATHDEDEFIVQ [SWP82]
doa10∆
  protein stability index: 3.05 ± 0.041
pdr5∆
  protein stability index: 3.14 ± 0.038
san1∆
  protein stability index: 3.11 ± 0.039
ubr1∆
  protein stability index: 3.151 ± 0.028

## TLPSVGHTLINNYKDLL [RPP0]
pdr5∆
  protein stability index: 3.34 ± 0.21

## FNKYADPTLTTTTSFTT [RPN4]
doa10∆
  protein stability index: 2.35 ± 0.035
pdr5∆
  protein stability index: 2.57 ± 0.042
san1∆
  protein stability index: 2.26 ± 0.04
ubr1∆
  protein stability index: 2.48 ± 0.029

## DWQMMTSPVTGATEKRK [CSL4]
doa10∆
  protein stability index: 2.44 ± 0.07
pdr5∆
  protein stability index: 2.03 ± 0.11
san1∆
  protein stability index: 2.3 ± 0.12
ubr1∆
  protein stability index: 1.52 ± 0.062

## EGGEAEFIFGTYNMIDA [ARP7]
doa10∆
  protein stability index: 2.79 ± 0.059
pdr5∆
  protein stability index: 2.66 ± 0.055
san1∆
  protein stability index: 2.52 ± 0.054
ubr1∆
  protein stability index: 2.83 ± 0.045

## FLSLLNLATKGMVKLNE [REC8]
doa10∆
  protein stability index: 2.77 ± 0.07
pdr5∆
  protein stability index: 1.59 ± 0.055
san1∆
  protein stability index: 1.6 ± 0.078
ubr1∆
  protein stability index: 1.58 ± 0.045

## ERSELLRLFNAPDSEYL [SNF2]
doa10∆
  protein stability index: 3.02 ± 0.044
pdr5∆
  protein stability index: 2.8 ± 0.051
san1∆
  protein stability index: 2.87 ± 0.045
ubr1∆
  protein stability index: 2.77 ± 0.045

## FVCEKSIEFAKREKRVF [RPN6]
ubr1∆
  protein stability index: 2.41 ± 0.25

## RCWKANIPWDVPGMPAP [PRP8]
doa10∆
  protein stability index: 2.15 ± 0.081
pdr5∆
  protein stability index: 1.5 ± 0.077
san1∆
  protein stability index: 1.28 ± 0.12
ubr1∆
  protein stability index: 2.73 ± 0.18

## ALDIVCSDFVKILNLEK [NUT1]
doa10∆
  protein stability index: 2.7 ± 0.069
pdr5∆
  protein stability index: 2.7 ± 0.07
san1∆
  protein stability index: 2.35 ± 0.11
ubr1∆
  protein stability index: 2.29 ± 0.099

## KVPDSTYDMVGGLTKQI [RPT6]
doa10∆
  protein stability index: 2.27 ± 0.15
pdr5∆
  protein stability index: 2.63 ± 0.17
san1∆
  protein stability index: 1.93 ± 0.22
ubr1∆
  protein stability index: 2.57 ± 0.077

## VKHSPGAIKPFTPKLIY [ECM29]
doa10∆
  protein stability index: 3.16 ± 0.089
san1∆
  protein stability index: 2.87 ± 0.19
ubr1∆
  protein stability index: 2.93 ± 0.1

## DILQITKKPLMVKNVKP [SIR4]
doa10∆
  protein stability index: 2.79 ± 0.063
pdr5∆
  protein stability index: 2.72 ± 0.049
san1∆
  protein stability index: 2.55 ± 0.069
ubr1∆
  protein stability index: 2.63 ± 0.062

## HYDNTTRNSLGNVIQFI [RPO21]
doa10∆
  protein stability index: 2.45 ± 0.04
pdr5∆
  protein stability index: 2.62 ± 0.043
san1∆
  protein stability index: 2.87 ± 0.034
ubr1∆
  protein stability index: 2.86 ± 0.03

## PKLKRIGLVKCTQMTDE [GRR1]
doa10∆
  protein stability index: 2.95 ± 0.073
pdr5∆
  protein stability index: 2.89 ± 0.076
san1∆
  protein stability index: 2.81 ± 0.057
ubr1∆
  protein stability index: 2.86 ± 0.047

## QVENMKWDFAKDIKGYG [PRE4]
doa10∆
  protein stability index: 2.03 ± 0.078
pdr5∆
  protein stability index: 1.54 ± 0.082
san1∆
  protein stability index: 1.41 ± 0.16
ubr1∆
  protein stability index: 1.68 ± 0.049

## KAEKKVELHGKRKLDIG [PRP8]
pdr5∆
  protein stability index: 2.8 ± 0.17
san1∆
  protein stability index: 3.13 ± 0.16

## LRVEHIKHSKCRQEFLE [RPL21A]
doa10∆
  protein stability index: 1.59 ± 0.21
pdr5∆
  protein stability index: 2.43 ± 0.16
san1∆
  protein stability index: 1.17 ± 0.18
ubr1∆
  protein stability index: 1.31 ± 0.11

## HANAAAVYFADTSGLKI [SIN4]
doa10∆
  protein stability index: 2.37 ± 0.067
pdr5∆
  protein stability index: 2.56 ± 0.065
san1∆
  protein stability index: 2.23 ± 0.073
ubr1∆
  protein stability index: 2.49 ± 0.053
